From patent US20250043302A1, “MUTATED HYDROXYPHENYLPYRUVATE DIOXYGENASE POLYPEPTIDE, AND CODING GENE AND USE THEREOF” (BEIJING DABEINONG BIOTECHNOLOGY CO., LTD., priority 2021, published 2025)
Numbering of substitutions follows the chain as printed. Numbers in names are those of the source.

B1: AsHPPDm-F372G-02: nucleotide sequence encoding Avena sativa HPPD with F372G; vector DBN11774 (nucleic acid)
DNA: ATGCCACCTACTCCAGCTACAGCTACTGGTGCTGCTGCTGCTGCCGTTACTCCTGAGCACGCTGCCAGGTCATTCCCCAGGGTGGTTCGCGTGAACCCCAGATCTGATAGGTTCCCAGTTCTGAGCTTCCACCATGTTGAGCTGTGGTGCGCTGATGCTGCTTCTGCTGCTGGCAGGTTCTCTTTCGCTCTTGGTGCTCCACTCGCTGCTAGATCTGATCTGTCTACAGGAAATAGCGCTCATGCCTCACTCCTGCTTCGCTCAGGTGCTTTGGCCTTCCTCTTCACCGCTCCATATGCTCCCCCACCTCAGGAGGCTGCTACTGCTGCTGCTACAGCCTCCATTCCAAGCTTCTCAGCTGATGCCGCTAGAACCTTCGCTGCTGCTCATGGACTTGCCGTGAGGTCTGTTGGTGTTCGCGTGGCTGATGCTGCTGAGGCTTTCAGAGTTTCCGTTGCCGGCGGAGCTAGGCCAGCTTTCGCTCCTGCTGATTTGGGACATGGTTTCGGCCTGGCTGAGGTTGAGCTTTACGGTGACGTGGTTCTCCGCTTCGTGTCTTACCCAGATGAGACTGACCTGCCTTTCCTTCCCGGCTTCGAGAGAGTTTCCTCTCCTGGTGCCGTGGATTACGGCCTGACAAGGTTCGACCACGTGGTTGGAAACGTTCCCGAGATGGCTCCAGTGATCGATTACATGAAGGGCTTCCTTGGATTCCATGAGTTCGCCGAGTTCACTGCTGAGGACGTGGGAACCACTGAGTCCGGTTTGAACTCTGTGGTTCTCGCCAACAATTCTGAGGCTGTTTTGCTCCCTCTGAATGAGCCTGTGCATGGAACCAAGAGGAGAAGCCAGATTCAAACTTACCTGGAGTACCACGGTGGCCCTGGAGTTCAGCATATCGCCCTTGCTTCTAATGATGTGTTGCGCACACTCAGAGAGATGCGCGCCAGAACCCCCATGGGAGGTTTCGAGTTCATGGCCCCACCACAGGCTAAGTACTACGAGGGCGTTAGAAGGATTGCTGGAGACGTGTTGAGCGAGGAGCAGATCAAGGAGTGCCAAGAGCTGGGTGTTCTTGTGGATAGGGATGACCAGGGCGTTCTGCTTCAAATTGGTACTAAGCCAGTGGGCGACCGCCCTACATTCTTCCTTGAGATGATTCAAAGAATCGGCTGCATGGAGAAGGATGAGGTTGGACAGGAGTACCAAAAGGGCGGATGCGGTGGCTTCGGAAAGGGTAACTTCAGCGAGTTGTTCAAGTCAATCGAGGACTACGAGAAGAGCCTCGAGGTGAAGCAGTCAGTGGTTGCCCAAAAGTCCTGA
modifications: AsHPPDm-F372G-02 Nucleotide Sequence
notes: vector DBN11774
B2: AsHPPDm-F372G-F383W-02: nucleotide sequence encoding Avena sativa HPPD with F372G+F383W; vector DBN11775 (nucleic acid)
DNA: B1 DNA with T1148G, C1149G
modifications: AsHPPDm-F372G-F383W-02 Nucleotide Sequence
notes: vector DBN11775
B3: AsHPPDm-F372V-02: nucleotide sequence encoding Avena sativa HPPD with F372V; vector DBN11776 (nucleic acid)
DNA: B1 DNA with G1115T, T1116C
modifications: AsHPPDm-F372V-02 Nucleotide Sequence
notes: vector DBN11776

The molecules below were run on Arabidopsis thaliana T1 plants (assay: Mesotrione tolerance of transgenic Arabidopsis thaliana T1 plants (spray, bleached leaf area grade, damage score)). Conditions: Table 9; mesotrione 210 g ai/ha (2×).
Format: in vivo
Design: Scores: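 damage score 0-100 computed as Σ(N×S)/(T×M)×100 over grades 0-3 with higher meaning more damage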
Method in brief: (§1)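 T1 transformants selected by glufosinate; 18-day-old plants, with empty-vector and wild-type controls, sprayed with topramezone (25–200 g ai/ha), isoxaflutole (35–280 g ai/ha) or mesotrione (52.5–420 g ai/ha), water as 0×. Bleached leaf area fraction scored at 7 DAT as grades 0–3.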

Row | Molecule | Resistance evaluation
1 | B1 | Moderately
2 | B2 | Highly resistant
3 | B3 | Moderately

Same assay, conditions: Table 9; mesotrione 210 g ai/ha (2×); number of plants at grade 0

Row | Molecule | Classification and statistics of the grade of pesticide damage Grade 0
4 | B1 | 5
5 | B2 | 16
6 | B3 | 5

Same assay, conditions: Table 9; mesotrione 210 g ai/ha (2×); number of plants at grade 1

Row | Molecule | Classification and statistics of the grade of pesticide damage Grade 1
7 | B1 | 8
8 | B2 | 0
9 | B3 | 7

Same assay, conditions: Table 9; mesotrione 210 g ai/ha (2×); number of plants at grade 2

Row | Molecule | Classification and statistics of the grade of pesticide damage Grade 2
10 | B1 | 2
11 | B2 | 0
12 | B3 | 4

Same assay, conditions: Table 9; mesotrione 210 g ai/ha (2×); number of plants at grade 3

Row | Molecule | Classification and statistics of the grade of pesticide damage Grade 3
13 | B1 | 1
14 | B2 | 0
15 | B3 | 0

Same assay, conditions: Table 9; mesotrione 210 g ai/ha (2×); pesticide damage score

Row | Molecule | Scores
16 | B1 | 31
17 | B2 | 0
18 | B3 | 31

Same assay, conditions: Table 9; mesotrione 420 g ai/ha (4×)

Row | Molecule | Resistance evaluation
19 | B1 | Poorly resistant
20 | B2 | Highly resistant
21 | B3 | Poorly resistant

Same assay, conditions: Table 9; mesotrione 420 g ai/ha (4×); number of plants at grade 0

Row | Molecule | Classification and statistics of the grade of pesticide damage Grade 0
22 | B1 | 0
23 | B2 | 13
24 | B3 | 0

Same assay, conditions: Table 9; mesotrione 420 g ai/ha (4×); number of plants at grade 1

Row | Molecule | Classification and statistics of the grade of pesticide damage Grade 1
25 | B1 | 8
26 | B2 | 3
27 | B3 | 8

Same assay, conditions: Table 9; mesotrione 420 g ai/ha (4×); number of plants at grade 2

Row | Molecule | Classification and statistics of the grade of pesticide damage Grade 2
28 | B1 | 8
29 | B2 | 0
30 | B3 | 7

Same assay, conditions: Table 9; mesotrione 420 g ai/ha (4×); number of plants at grade 3

Row | Molecule | Classification and statistics of the grade of pesticide damage Grade 3
31 | B1 | 0
32 | B2 | 0
33 | B3 | 1

Same assay, conditions: Table 9; mesotrione 420 g ai/ha (4×); pesticide damage score

Row | Molecule | Scores
34 | B1 | 50
35 | B2 | 6
36 | B3 | 52

Each molecule was assayed on Arabidopsis thaliana T1 plants (assay: Topramezone tolerance of transgenic Arabidopsis thaliana T1 plants (spray, bleached leaf area grade, damage score)). Conditions: topramezone 100 g ai/ha (4x field concentration); Arabidopsis thaliana T1 plants.
Format: in vivo
Method in brief: as §1

Row | Molecule | Resistance evaluation | Scores
37 | B1 | Highly resistant | 0
38 | B2 | Highly resistant | 0
39 | B3 | Highly resistant | 0

Same assay, conditions: topramezone 100 g ai/ha (4x field concentration); Arabidopsis thaliana T1 plants; 16 plants

Row | Molecule | Grade 0 (classification and statistics of the grade of pesticide damage; number of plants) | Grade 1 (classification and statistics of the grade of pesticide damage; number of plants) | Grade 2 (classification and statistics of the grade of pesticide damage; number of plants) | Grade 3 (classification and statistics of the grade of pesticide damage; number of plants)
40 | B1 | 16 | 0 | 0 | 0
41 | B2 | 16 | 0 | 0 | 0
42 | B3 | 16 | 0 | 0 | 0

Same assay, conditions: topramezone 200 g ai/ha (8x field concentration); Arabidopsis thaliana T1 plants

Row | Molecule | Resistance evaluation | Scores
43 | B1 | Highly resistant | 0
44 | B2 | Highly resistant | 0
45 | B3 | Highly resistant | 0

Same assay, conditions: topramezone 200 g ai/ha (8x field concentration); Arabidopsis thaliana T1 plants; 16 plants

Row | Molecule | Grade 0 (classification and statistics of the grade of pesticide damage; number of plants) | Grade 1 (classification and statistics of the grade of pesticide damage; number of plants) | Grade 2 (classification and statistics of the grade of pesticide damage; number of plants) | Grade 3 (classification and statistics of the grade of pesticide damage; number of plants)
46 | B1 | 16 | 0 | 0 | 0
47 | B2 | 16 | 0 | 0 | 0
48 | B3 | 16 | 0 | 0 | 0

Same assay, conditions: topramezone at four-fold or eight-fold field concentration

Row | Molecule | tolerance to topramezone (resistance class)
49 | B1 | highly-resistant
50 | B2 | highly-resistant
51 | B3 | highly-resistant

Each molecule was assayed on Arabidopsis thaliana T1 plants (assay: Isoxaflutole tolerance of transgenic Arabidopsis thaliana T1 plants (spray, bleached leaf area grade, damage score)). Conditions: isoxaflutole 140 g ai/ha (2x field concentration); Arabidopsis thaliana T1 plants.
Format: in vivo
Method in brief: as §1

Row | Molecule | Resistance evaluation | Scores
52 | B1 | Moderately | 29
53 | B2 | Highly resistant | 0
54 | B3 | Moderately | 33

Same assay, conditions: isoxaflutole 140 g ai/ha (2x field concentration); Arabidopsis thaliana T1 plants; 16 plants

Row | Molecule | Grade 0 (classification and statistics of the grade of pesticide damage; number of plants) | Grade 1 (classification and statistics of the grade of pesticide damage; number of plants) | Grade 2 (classification and statistics of the grade of pesticide damage; number of plants) | Grade 3 (classification and statistics of the grade of pesticide damage; number of plants)
55 | B1 | 6 | 7 | 2 | 1
56 | B2 | 16 | 0 | 0 | 0
57 | B3 | 6 | 5 | 4 | 1

Same assay, conditions: isoxaflutole 280 g ai/ha (4x field concentration); Arabidopsis thaliana T1 plants

Row | Molecule | Resistance evaluation | Scores
58 | B1 | Poorly resistant | 67
59 | B2 | Highly resistant | 8
60 | B3 | Poorly resistant | 67

Same assay, conditions: isoxaflutole 280 g ai/ha (4x field concentration); Arabidopsis thaliana T1 plants; 16 plants

Row | Molecule | Grade 0 (classification and statistics of the grade of pesticide damage; number of plants) | Grade 1 (classification and statistics of the grade of pesticide damage; number of plants) | Grade 2 (classification and statistics of the grade of pesticide damage; number of plants) | Grade 3 (classification and statistics of the grade of pesticide damage; number of plants)
61 | B1 | 0 | 0 | 16 | 0
62 | B2 | 12 | 4 | 0 | 0
63 | B3 | 0 | 0 | 16 | 0
